B1: Molecular chaperone MKKS (Homo sapiens), Q9NPJ1 (parent)
chain: MSRLEAKKPSLCKSEPLTTERVRTTLSVLKRIVTSCYGPSGRLKQLHNGFGGYVCTTSQSSALLSHLLVTHPILKILTASIQNHVSSFSDCGLFTAILCCNLIENVQRLGLTPTTVIRLNKHLLSLCISYLKSETCGCRIPVDFSSTQILLCLVRSILTSKPACMLTRKETEHVSALILRAFLLTIPENAEGHIILGKSLIVPLKGQRVIDSTVLPGILIEMSEVQLMRLLPIKKSTALKVALFCTTLSGDTSDTGEGTVVVSYGVSLENAVLDQLLNLGRQLISDHVDLVLCQKVIHPSLKQFLNMHRIIAIDRIGVTLMEPLTKMTGTQPIGSLGSICPNSYGSVKDVCTAKFGSKHFFHLIPNEATICSLLLCNRNDTAWDELKLTCQTALHVLQLTLKEPWALLGGGCTETHLAAYIRHKTHNDPESILKDDECTQTELQLIAEAFCSALESVVGSLEHDGGEILTDMKYGHLWSVQADSPCVANWPDLLSQCGCGLYNSQEELNWSFLRSTRRPFVPQSCLPHEAVGSASNLTLDCLTAKLSGLQVAVETANLILDLSYVIEDKN
partner: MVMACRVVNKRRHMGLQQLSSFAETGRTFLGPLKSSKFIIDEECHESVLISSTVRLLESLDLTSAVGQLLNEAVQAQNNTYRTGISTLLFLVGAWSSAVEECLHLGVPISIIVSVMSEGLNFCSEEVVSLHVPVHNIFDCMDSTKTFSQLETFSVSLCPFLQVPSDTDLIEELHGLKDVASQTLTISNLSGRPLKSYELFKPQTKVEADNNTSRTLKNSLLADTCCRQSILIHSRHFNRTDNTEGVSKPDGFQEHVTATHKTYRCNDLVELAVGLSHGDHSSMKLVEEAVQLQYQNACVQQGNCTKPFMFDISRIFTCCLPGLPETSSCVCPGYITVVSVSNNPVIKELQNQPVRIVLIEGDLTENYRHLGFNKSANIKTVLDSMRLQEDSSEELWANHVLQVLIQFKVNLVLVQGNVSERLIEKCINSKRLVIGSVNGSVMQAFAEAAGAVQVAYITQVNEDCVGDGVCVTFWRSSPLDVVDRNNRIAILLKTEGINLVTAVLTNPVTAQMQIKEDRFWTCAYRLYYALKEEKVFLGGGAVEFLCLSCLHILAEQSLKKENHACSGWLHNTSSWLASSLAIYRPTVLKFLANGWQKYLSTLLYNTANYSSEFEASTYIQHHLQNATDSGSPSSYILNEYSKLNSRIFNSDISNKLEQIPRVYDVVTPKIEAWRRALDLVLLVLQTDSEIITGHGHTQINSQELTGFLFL

Variants of: B1
Details: with bbs12_human BBS12, Q6ZW61

Question: With L277P as the variant, how does the “effect of a mutation on the interaction” value read?
Answer: The value was “decreasing interaction strength”.

Question: With T57A as the variant, how does the “effect of a mutation on the interaction” value read?
Answer: The value was “disrupting interaction strength”.

Question: H395R was tested. Which “effect of a mutation on the interaction” value did it give?
Answer: The value was “decreasing interaction strength”.

Source: IntAct's records for PubMed 26900326
